# Tested on: Escherichia coli TOP10
# Test: shrunken log2 fold change of peptide-encoding DNA abundance (4.5 h post-induction vs induction); higher = less antimicrobial activity (less host growth inhibition)
# Settings: time post-induction: 4.5 h; library: site-saturation at positions 5, 18, 19, 20
# 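Also: peptides expressed intracellularly from a pBAD plasmid library in pooled LB shake-flask culture, induced with 0.3% L-arabinose, DNA abundance read by NGS, three biological replicates, DESeq2 with apeglm shrinkage.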
row,Sequence,shrunken log2 fold change
1,RRIRNRPPRLPRPRPRPPFHPRP,-0.17
2,RRIRKRPPRLPRPRPRPNFVPRP,0.309
3,RRIRVRPPRLPRPRPRPGWWPRP,0.115
4,RRIRTRPPRLPRPRPRPQSDPRP,-0.0398
5,RRIRSRPPRLPRPRPRPAWCPRP,0.545
6,RRIRRRPPRLPRPRPRPELDPRP,0.122
7,RRIRSRPPRLPRPRPRPHVKPRP,-0.00963
8,RRIRRRPPRLPRPRPRPPHFPRP,0.897
9,RRIRERPPRLPRPRPRPARWPRP,0.592
10,RRIRARPPRLPRPRPRPPRHPRP,0.937
11,RRIRNRPPRLPRPRPRPHLFPRP,-0.0208
12,RRIRFRPPRLPRPRPRPFMPPRP,-0.469
13,RRIRFRPPRLPRPRPRPTKWPRP,0.333
14,RRIRGRPPRLPRPRPRPSAAPRP,2.09
15,RRIRGRPPRLPRPRPRPGTHPRP,0.508
16,RRIRSRPPRLPRPRPRPIIDPRP,-0.178
17,RRIRTRPPRLPRPRPRPPANPRP,0.0303
18,RRIRFRPPRLPRPRPRPNWMPRP,-0.0436
19,RRIRDRPPRLPRPRPRPHPIPRP,-0.152
20,RRIRERPPRLPRPRPRPCCDPRP,-0.362
21,RRIRSRPPRLPRPRPRPALTPRP,0.369
22,RRIRGRPPRLPRPRPRPWEHPRP,-0.000921

row,Sequence,shrunken log2 fold change
1,RRIRFRPPRLPRPRPRPHMYPRP,-1.28
2,RRIRVRPPRLPRPRPRPTHNPRP,0.0759
3,RRIRSRPPRLPRPRPRPDVQPRP,-0.147
4,RRIRGRPPRLPRPRPRPLAFPRP,0.487
5,RRIRCRPPRLPRPRPRPRNPPRP,0.176
6,RRIRYRPPRLPRPRPRPQQIPRP,-0.142
7,RRIRQRPPRLPRPRPRPRSEPRP,0.234
8,RRIRHRPPRLPRPRPRPLTTPRP,-0.142
9,RRIRVRPPRLPRPRPRPVLYPRP,-0.281
10,RRIRARPPRLPRPRPRPGRMPRP,0.237
11,RRIRWRPPRLPRPRPRPARMPRP,0.362
12,RRIRGRPPRLPRPRPRPEPRPRP,1.35
13,RRIRERPPRLPRPRPRPQAMPRP,0.00616
14,RRIRSRPPRLPRPRPRPHSTPRP,-0.312
15,RRIRSRPPRLPRPRPRPVDGPRP,0.826
16,RRIRMRPPRLPRPRPRPYYNPRP,-0.709
17,RRIRRRPPRLPRPRPRPYMKPRP,-0.0984
18,RRIRQRPPRLPRPRPRPGFGPRP,0.245
19,RRIRERPPRLPRPRPRPNWVPRP,-0.0244
20,RRIRYRPPRLPRPRPRPNTPPRP,-0.179
21,RRIRHRPPRLPRPRPRPSCFPRP,-0.257
22,RRIRVRPPRLPRPRPRPRKTPRP,0.0951

row,Sequence,shrunken log2 fold change
1,RRIRYRPPRLPRPRPRPFDWPRP,-0.122
2,RRIRARPPRLPRPRPRPAHVPRP,0.0804
3,RRIRKRPPRLPRPRPRPAHEPRP,0.816
4,RRIRARPPRLPRPRPRPSDGPRP,0.0321
5,RRIRVRPPRLPRPRPRPQTLPRP,-0.372
6,RRIRKRPPRLPRPRPRPSGQPRP,0.244
7,RRIRKRPPRLPRPRPRPMYIPRP,-0.0457
8,RRIRVRPPRLPRPRPRPTRDPRP,0.472
9,RRIRCRPPRLPRPRPRPHWHPRP,-0.42
10,RRIRERPPRLPRPRPRPDQTPRP,-0.00664
11,RRIRVRPPRLPRPRPRPIMWPRP,0.03
12,RRIRTRPPRLPRPRPRPRNCPRP,-0.176
13,RRIRSRPPRLPRPRPRPWPQPRP,0.0548
14,RRIRGRPPRLPRPRPRPYDIPRP,-0.068
15,RRIRWRPPRLPRPRPRPQSWPRP,0.302
16,RRIRSRPPRLPRPRPRPMKQPRP,0.00692
17,RRIRFRPPRLPRPRPRPTRTPRP,0.326
18,RRIRSRPPRLPRPRPRPLDYPRP,-0.194
19,RRIRMRPPRLPRPRPRPVTTPRP,0.107
20,RRIRQRPPRLPRPRPRPESTPRP,-0.0105
21,RRIRPRPPRLPRPRPRPPTWPRP,0.302
22,RRIRARPPRLPRPRPRPVNNPRP,-0.223

row,Sequence,shrunken log2 fold change
1,RRIRPRPPRLPRPRPRPEHKPRP,-0.00916
2,RRIRNRPPRLPRPRPRPVTAPRP,-0.248
3,RRIRPRPPRLPRPRPRPGMCPRP,-0.0873
4,RRIRVRPPRLPRPRPRPTTSPRP,0.097
5,RRIRSRPPRLPRPRPRPYSAPRP,-0.0105
6,RRIRARPPRLPRPRPRPHCQPRP,0.0405
7,RRIRWRPPRLPRPRPRPCVAPRP,0.321
8,RRIRWRPPRLPRPRPRPPLMPRP,0.213
9,RRIRARPPRLPRPRPRPVFYPRP,-0.0366
10,RRIRQRPPRLPRPRPRPPFCPRP,-0.284
11,RRIRGRPPRLPRPRPRPRANPRP,0.816
12,RRIRNRPPRLPRPRPRPVAEPRP,0.363
13,RRIRVRPPRLPRPRPRPKQGPRP,0.0222
14,RRIRQRPPRLPRPRPRPNMTPRP,-0.196
15,RRIRFRPPRLPRPRPRPMWWPRP,0.0551
16,RRIRRRPPRLPRPRPRPIEIPRP,0.0138
17,RRIRRRPPRLPRPRPRPSKTPRP,-0.0865
18,RRIRTRPPRLPRPRPRPKFSPRP,-0.189
19,RRIRIRPPRLPRPRPRPHSSPRP,-0.448
20,RRIRRRPPRLPRPRPRPLRNPRP,0.94
21,RRIRKRPPRLPRPRPRPRNLPRP,0.525
22,RRIRDRPPRLPRPRPRPKCMPRP,-0.153

row,Sequence,shrunken log2 fold change
1,RRIRTRPPRLPRPRPRPGLKPRP,0.0372
2,RRIRLRPPRLPRPRPRPGTTPRP,-0.221
3,RRIRTRPPRLPRPRPRPYEYPRP,0.0353
4,RRIRNRPPRLPRPRPRPVKVPRP,-0.0708
5,RRIRPRPPRLPRPRPRPEMTPRP,-0.0182
6,RRIRHRPPRLPRPRPRPQLNPRP,-0.593
7,RRIRMRPPRLPRPRPRPHFDPRP,-0.0378
8,RRIRHRPPRLPRPRPRPIEWPRP,-0.02
9,RRIRGRPPRLPRPRPRPPIVPRP,0.0957
10,RRIRQRPPRLPRPRPRPLRSPRP,0.208
11,RRIRHRPPRLPRPRPRPSVWPRP,-0.151
12,RRIRWRPPRLPRPRPRPLHLPRP,-0.234
13,RRIRNRPPRLPRPRPRPAEQPRP,-0.018
14,RRIRVRPPRLPRPRPRPYSPPRP,-0.181
15,RRIRIRPPRLPRPRPRPSAWPRP,0.0616
16,RRIRARPPRLPRPRPRPPLVPRP,0.626
17,RRIRWRPPRLPRPRPRPRYDPRP,-0.248
18,RRIRRRPPRLPRPRPRPQVDPRP,0.237
19,RRIRFRPPRLPRPRPRPQPSPRP,0.279
20,RRIRPRPPRLPRPRPRPGWMPRP,-0.0745
21,RRIRQRPPRLPRPRPRPRCYPRP,0.0331

# From the supplement of paper PMC9112550, “Optimization of the antimicrobial peptide Bac7 by deep mutational scanning” (BMC Biology, 2022)
